From patent US9540424B2, “Serum albumin binding molecules” (BRISTOL-MYERS SQUIBB COMPANY, priority 2010, dated 2017)
“Also recorded” adds a separate entry of the source. Like-named read-outs stand apart in the source and are kept apart here. No end group written: not given here.

How the values were obtained:
[1] = system: anesthetized rats; assay: Blood pressure in anesthetized rats after intravenous delivery; format: in vivo, rat; details: APLNv4 60 μg/kg, SABA-APLNv2 600 μg/kg
Source text: Potential explanations for the absence of activity with the SABA-APLNv2 construct can include lessened potency due to poorer productive collision frequency, steric hindrance, or peptide-PKE annealing.

[2] = target: T1, human NPY Y4 receptor (Homo sapiens, UniProt P50391); assay: GTPγS binding functional assay: NPY Y4 receptor membranes; format: biochemical
T1 construct: expressed in transfected cells; host or cells: CHO cells (membrane preparation)
T1 sequence (P50391 whole entry): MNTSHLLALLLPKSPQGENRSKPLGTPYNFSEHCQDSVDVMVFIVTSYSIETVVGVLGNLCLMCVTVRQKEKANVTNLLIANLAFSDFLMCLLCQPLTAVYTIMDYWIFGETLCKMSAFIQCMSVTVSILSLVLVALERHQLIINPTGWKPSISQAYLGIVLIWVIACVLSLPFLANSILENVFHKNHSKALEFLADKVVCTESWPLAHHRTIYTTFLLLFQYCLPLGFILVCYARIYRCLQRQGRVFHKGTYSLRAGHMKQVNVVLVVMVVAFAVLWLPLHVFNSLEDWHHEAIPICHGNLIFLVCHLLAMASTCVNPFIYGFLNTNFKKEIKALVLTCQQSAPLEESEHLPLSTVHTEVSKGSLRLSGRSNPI
Source text: Peptide YY (PYY) and pancreatic polypeptide (PP) are native satiety factors secreted from intestine and pancreas, respectively, in response to food ingestion, and are reduced upon fasting. PYY and PP may both be isolated in their full-length form which are 36-residue peptide amides. PYY can also be further cleaved by the enzyme DPPIV into a shorter biologically active form PYY(3-36). Peripheral injection of PYY(3-36) or PP causes reduction in food intake and body weight in animal models and in humans. Patients with morbid obesity have both reduced basal and meal-stimulated PYY(3-36) and/or PP levels. In contrast, patients with anorexia, or weight loss after bypass surgery, have higher than normal plasma PYY(3-36) and/or PP. Agonism of PYY(3-36) and PP are of great therapeutic value in treating obesity and metabolic diseases. NPY Y2 and Y4 are receptors with the highest affinity to PYY(3-36) and PP, respectively. NPY receptors belong to the G-protein coupled receptor family. Upon agonist stimulation, the NPY receptor may stimulate the down-streamed G-protein, exchanging its bound GDP for a GTP. […]
One T150 flask of recombinant CHO cells over-expressing human NPY Y2 or Y4 receptors were grown in F-12 medium (HAM, with L-glutamine) with G418 at 0.5 mg/ml until confluent. […] Protein concentration was measured and aliquots were stored at −80° C. until use. […]

[3] = system: HEK parental cells; assay: cAMP levels in HEK parental cells; format: cell-based, human
[4] = target: HSA (Homo sapiens, UniProt P02768)
Procedure: (§1) In addition, binding to albumin was carried out under various pH conditions ranging from pH 5.5 to pH 7.4.

[5] = cynomolgus monkey, in vivo
Procedure: The pharmacokinetics and bioavailability were also evaluated in a three-week, single-dose pre-toxicology study that included both intravenous and subcutaneous administration arms.
Non-compartmental analyses using WinNonlin software were performed to evaluate pharmacokinetic parameters.

[6] = Preliminary formulation screen and stability of SABA1.2
[7] = target: RhSA (Macaca mulatta, UniProt Q28522); assay: Biacore kinetics of SABAs on immobilized serum albumin: RhSA; format: binding, rhesus; details: Rhesus albumin
Sequence of RhSA (Q28522 17-600): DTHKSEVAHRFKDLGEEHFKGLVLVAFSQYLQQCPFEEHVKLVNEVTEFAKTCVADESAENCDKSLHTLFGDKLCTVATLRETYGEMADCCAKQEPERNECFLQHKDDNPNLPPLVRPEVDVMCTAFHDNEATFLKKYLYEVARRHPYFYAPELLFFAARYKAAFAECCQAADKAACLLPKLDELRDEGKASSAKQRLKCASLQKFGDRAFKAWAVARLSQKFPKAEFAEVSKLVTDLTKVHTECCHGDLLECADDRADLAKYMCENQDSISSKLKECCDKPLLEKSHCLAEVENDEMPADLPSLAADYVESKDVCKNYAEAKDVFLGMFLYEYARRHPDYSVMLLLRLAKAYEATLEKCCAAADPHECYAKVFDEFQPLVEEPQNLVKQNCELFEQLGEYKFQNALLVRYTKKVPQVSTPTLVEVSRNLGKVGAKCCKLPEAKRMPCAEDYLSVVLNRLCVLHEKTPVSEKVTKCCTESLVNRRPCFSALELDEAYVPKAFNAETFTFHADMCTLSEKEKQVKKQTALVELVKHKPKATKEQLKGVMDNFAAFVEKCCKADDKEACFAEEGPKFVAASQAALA
Procedure: as §1

[8] = target: MuSA (Mus musculus, UniProt P07724); assay: Biacore kinetics of SABAs on immobilized serum albumin: MuSA; format: binding; details: HBS-P buffer
Sequence of MuSA (P07724 25-608): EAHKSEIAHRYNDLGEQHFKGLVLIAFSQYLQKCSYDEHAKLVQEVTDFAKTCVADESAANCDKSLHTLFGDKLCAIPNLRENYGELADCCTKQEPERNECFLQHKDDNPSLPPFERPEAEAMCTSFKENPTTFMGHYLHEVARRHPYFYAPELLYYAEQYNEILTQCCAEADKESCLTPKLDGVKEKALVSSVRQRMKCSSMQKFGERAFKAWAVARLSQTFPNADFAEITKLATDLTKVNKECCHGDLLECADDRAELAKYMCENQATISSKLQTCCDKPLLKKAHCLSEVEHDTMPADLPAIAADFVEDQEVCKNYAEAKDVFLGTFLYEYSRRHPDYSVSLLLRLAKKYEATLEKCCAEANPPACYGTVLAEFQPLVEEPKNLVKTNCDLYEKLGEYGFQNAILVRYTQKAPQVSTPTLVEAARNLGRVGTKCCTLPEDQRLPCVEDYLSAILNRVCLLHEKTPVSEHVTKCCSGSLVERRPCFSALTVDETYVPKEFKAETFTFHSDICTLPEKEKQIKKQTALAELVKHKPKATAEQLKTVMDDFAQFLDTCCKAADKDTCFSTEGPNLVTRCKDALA

[9] = NOEL of SABA1.2 in cyno monkeys; format: in vivo; details: IV, dosed twice weekly for 5 doses
Procedure: The NOEL (No observed effective level) in cyno monkeys is 30 mg/kg IV when dosed twice weekly for 5 doses. […] Thus, ample safety factors have been taken into consideration for the dosing levels in this study.”

[10] = target: rat serum albumin (Rattus norvegicus, UniProt P02770); assay: SABA1.2 binding to rat serum albumin; details: up to 1 μM
Sequence of rat serum albumin (P02770 25-608): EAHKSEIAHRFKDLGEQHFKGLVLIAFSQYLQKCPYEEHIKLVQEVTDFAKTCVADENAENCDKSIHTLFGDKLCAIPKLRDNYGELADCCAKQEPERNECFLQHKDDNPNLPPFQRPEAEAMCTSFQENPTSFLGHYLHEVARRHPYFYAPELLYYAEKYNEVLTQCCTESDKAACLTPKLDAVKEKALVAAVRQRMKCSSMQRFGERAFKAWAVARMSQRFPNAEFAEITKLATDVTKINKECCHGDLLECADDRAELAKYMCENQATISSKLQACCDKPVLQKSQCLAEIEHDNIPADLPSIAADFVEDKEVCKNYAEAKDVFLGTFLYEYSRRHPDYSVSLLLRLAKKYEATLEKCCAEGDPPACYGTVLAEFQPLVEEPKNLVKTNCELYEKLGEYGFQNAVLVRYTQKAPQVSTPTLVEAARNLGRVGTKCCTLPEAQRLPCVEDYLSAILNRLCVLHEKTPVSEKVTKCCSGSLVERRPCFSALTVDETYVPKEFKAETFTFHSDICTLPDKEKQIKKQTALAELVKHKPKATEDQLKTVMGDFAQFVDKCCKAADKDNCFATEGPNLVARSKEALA

[11] = target: T2, Human serum albumin (Homo sapiens, UniProt P02768); assay: SPR (ProteOn XPR36) binding of SABA-neuropeptide fusions to Human Serum Albumin; details: 25° C., average of two experiments
T2 construct: purchased Novozymes Recombumin
Procedure: Surface Plasmon Resonance (SPR) is a direct binding technique by which molecular interactions can be observed in real time. For these experiments, SPR binding studies were performed using a ProteOn XPR36 instrument (BioRad Laboratories). The running buffer, phosphate buffered saline 0.05% Tween 20 pH 7.4, was purchased from Teknova (cat #P1192) and all experiments were run at 25° C. Human serum albumin was directly immobilized on a BioRad GLC chip via amine coupling as per manufacturer's guidelines using amine coupling reagents purchased from BioRad Laboratories. Human serum albumin was purchased from Novozymes (Recombumin™). About 5000 resonance units (RU) of human serum albumin were immobilized onto 4 separate lanes of the GLC chip surface. For each analyte, five concentrations ranging from 15.6 nM to 250 nM were injected over the surface at 30 μl/min for 240 seconds. The dissociation was monitored for 600 seconds. The surface was regenerated with 100 mM HCl. The resultant data were fitted to a Langumuir 1:1 binding model using the ProteOn Manager Software. The experiment was repeated with a different concentration range. In this second experiment, 5 concentrations ranging from 500 nM to 32 nM were injected over the surfaces, and the data analyzed as above. The KD is the disassociation constant. Smaller numbers indicate tighter binding to serum albumin. Molecules covalently attached to SABA that bind to serum albumin display longer in vivo pharmokinetic half-lives, as described earlier with respect to SABA-FGF-21 fusions.

In the case of “APLNv4: Apelin peptide variant fused in SABA-APLNv2 (QRPRLSHKGPMPF)”, the “effect on blood pressure” value [1] is reported as “robust hypotensive effect”.

Work on “APLEPMYPGDYATPEQMAQYETQLRRYINTLTRPRY-NH2 [PP Control Peptide]” yielded an Efficacy [2] of 100 and an EC50 ([2]; read-out: Potency (EC50)) of 1.7 nM.

With “KCNTATCATQRLANFLVRSSNNLGPVLPPTNVGSNTY [Amylin Control Peptide, reference compound]” the “effect on cAMP levels in the HEK parental cells” value [3] was “no significant effect”.

B1: SABA1.2: “core 1” 10Fn3 comprising an (ED)5 extension; SEQ ID NO: 90 (protein)
chain: MGVSDVPRDLEVVAATPTSLLISWHSYYEQNSYYRITYGETGGNSPVQEFTVPYSQTTATISGLKPGVDYTITVYAVYGSKYYYPISINYRTEIEDEDEDEDED
In the case of B1, the “kd (1/s)” value ([4]; Human albumin, 25° C., HBS-P buffer) is reported as 4.43 ± 0.65E−04 1/s, the “kd” value ([4]; Human albumin, 37° C., HBS-P buffer) is reported as 0.000815 s⁻¹ and the “kd” value ([4]; Human albumin, pH 5.5, MES buffer) is reported as 0.00027 s⁻¹. For the same molecule, the “kd” value ([4]; Human albumin, pH 7.4, MES buffer) was 0.000388 s⁻¹, the “ka” value ([4]; pH 5.5) was 9440 M⁻¹ s⁻¹ and the “ka” value ([4]; pH 7.4) was 9260 M⁻¹ s⁻¹. The “Bioavailability (F)” value ([5]; 1 mg/kg) was 0.7, the “AUCall (hr * nmol/L)” value ([5]; iv, 10 mg/kg) was 5,609,457 hr * nmol/L and the “Vz” value ([5]; iv, 10 mg/kg) was 0.03 L/kg. The “beta T1/2” value ([5]; iv, 10 mg/kg) was 143 h, the “AUCall (hr * nmol/L)” value ([5]; sc, 1 mg/kg) was 251,339 hr * nmol/L and the “Vz” value ([5]; sc, 1 mg/kg) was 0.062 L/kg. The “beta T1/2” value ([5]; sc, 1 mg/kg) was 134 h, the “protein melting temperature by DSC” value ([6]; 10 mM succinic acid, 8% sorbitol, 5% glycine, pH 6.0, 1.25 mg/mL protein) was 75 °C and the “level of aggregation after one month” value ([6]; 4° C.) was 1.6%. For the same molecule, the “solubility in the formulation” value ([6]; 4° C. and ambient temperature, no precipitation or increase in aggregation) was “at least 20 mg/mL”, the “level of aggregation after one month” value ([6]; 25° C.) was 3.8% and the initial aggregate level ([6]; formulation pH 6.0, 5 mg/mL) was 1.2%. For the same molecule, the “ka” value ([7]; 25° C., HBS-P buffer) was 6600 M⁻¹ s⁻¹, the “kd (1/s)” value ([7]; 25° C., HBS-P buffer) was 3.78 ± 0.45E−03 1/s and the “ka” value ([7]; 37° C., HBS-P buffer) was 18900 M⁻¹ s⁻¹. For the same molecule, the “kd” value ([7]; 37° C., HBS-P buffer) was 0.0185 s⁻¹, the “ka” value ([7]; pH 5.5, MES buffer) was 7570 M⁻¹ s⁻¹ and the “kd” value ([7]; pH 5.5, MES buffer) was 0.00272 s⁻¹. The “ka” value ([7]; pH 7.4, MES buffer) was 6160 M⁻¹ s⁻¹, the “kd” value ([7]; pH 7.4, MES buffer) was 0.00295 s⁻¹ and the “binding to Mouse albumin” value ([8]; 25° C., up to 1 μM) was “No measurable interaction; also recorded: no observable binding”. The “binding to Mouse albumin” value ([8]; 37° C.) was “no observable binding”, the “NOEL (No observed effective level)” value [9] was 30 mg/kg and the “interaction with rat serum albumin” value [10] was “No measurable interaction”.

B2: SABA1-AMYv25: SEQ ID NO: 328; SABA1.7-(ED)5G-Cys conjugated to Maleimide-PEG20-Amylin-CONH2 (conjugate)
chain: MGVSDVPRDLEVVAATPTSLLISWHSYYEQNSYYRITYGETGGNSPVQEFTVPYSQTTATISGLKPGVDYTITVYAVYGSKYYYPISINYRTEIEDEDEDEDEDGC
modifications: Maleimide-PEG20-Amylin-CONH2 conjugated via Cys
For B2, the “effect on cAMP levels in the HEK parental cells” value [3] was “no significant effect”, the “Koff (1/s)” value [11] was 2.41 10^−4 1/s and the “Kon (1/Ms)” value [11] was 9.34 10^3 1/Ms.
